The record followed here is EP4755913A1 (Abiotech Pharmaceutical Co., Ltd, dated 2026).

By EC50 is commonly meant the concentration giving half of the maximal effect. In general, Kd refers to the free concentration of one partner at which half of the binding sites on the other are occupied at equilibrium, for simple one-to-one binding. Broadly, the koff is the first-order rate constant of dissociation. A word on the kon: it is the second-order rate constant of association. As a reminder, the IC50 is the concentration that inhibits the measured activity by half.

In experiment [1] the target is T1, Human c-Met membrane protein on cells (human, UniProt P08581 25-932). Kind of experiment: cell-based or functional assay.
The target of experiment [2] is T2, Human EGFR membrane protein on cells (human, UniProt P00533 25-645). Kind of experiment: cell-based or functional assay.
Experiment [3] concerns the target T3, Recombinant human EGFR-HIS (Acrobiosystems, EGR-H5222) (human, UniProt P00533 25-645).
T3 construct: Bought reagent; not shown: His tag
Kind of experiment: ELISA, EGFR-HIS coated, anti-human IgG Fc detection.

Experiment [4] deals with T4, Recombinant human c-Met-HIS (Acrobiosystems, C-MET-H5227) (human, UniProt P08581 25-932).
T4 construct: Bought reagent; also called HGFR-his; HGFR-HIS; not shown: His tag
The experiment in a line: ELISA, C-MET-HIS coated, anti-human IgG Fc detection. On the technique in general: ELISA stands for enzyme-linked immunosorbent assay.

The target of experiment [5] is T2, Human EGFR membrane protein on cells. Kind of experiment: flow cytometry on CHO-K1 cells overexpressing human EGFR.
Experiment [6] addresses T1, Human c-Met membrane protein on cells. The experiment in a line: flow cytometry on CHO-K1 cells overexpressing human c-Met. For orientation: Flow cytometry measures light scatter and fluorescence of single cells or particles in a stream.
Experiment [7] has as its target Human C1q (Abcam, Cat No. AB282858) (human, UniProt P02745 23-245; P02746 28-253; P02747 29-245, limits assumed). The experiment in a line: BLI (Octet R8), antibody on FAB2G sensor, C1q in solution.
The target of experiment [8] is T5, Human FcγRIIA (CD32a) (ACRO, Cat No. CDA-H5221) (human, UniProt P12318 36-218, limits assumed).
T5 construct: Used in solution against antibody on ProA sensors
T5 sequence (looked up): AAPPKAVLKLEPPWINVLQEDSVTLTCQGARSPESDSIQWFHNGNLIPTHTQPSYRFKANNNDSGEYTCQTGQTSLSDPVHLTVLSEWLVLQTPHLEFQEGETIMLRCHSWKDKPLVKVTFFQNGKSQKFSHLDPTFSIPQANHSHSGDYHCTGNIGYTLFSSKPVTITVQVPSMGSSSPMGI
Kind of experiment: BLI (Octet R8), antibody on ProA sensor, CD32a in solution. A general note: Biolayer interferometry detects binding as a change in optical thickness at a sensor tip.

The target of experiment [9] is T6, Human FcγRIIIA (CD16a-V176) (ACRO, Cat No. CD8-H52H4) (human, UniProt P08637 17-208).
T6 construct: Immobilised on HIS1K (anti-His) sensors, so His-tagged; tag not described
Kind of experiment: BLI (Octet R8), receptor on HIS1K sensor, antibody in solution.

Experiment [10] deals with T7, Human FcγRIIIA (CD16a-F176) (ACRO, Cat No. CDA-H5220) (human, UniProt P08637 17-208).
T7 construct: Immobilised on HIS1K (anti-His) sensors, so His-tagged; tag not described
The description is as above.

Experiment [11] has as its target T8, Human FcγRIIIB (CD16b) (ACRO, Cat No. CDB-H5227) (human, UniProt O75015 17-200).
T8 construct: Immobilised on HIS1K (anti-His) sensors, so His-tagged; tag not described
The experiment is described as above.

In experiment [12] the target is T9, Human FcγRIIB/C (CD32b/c) (ACRO, Cat No. CDB-H5228) (human, UniProt P31994 46-217, limits assumed).
T9 construct: Immobilised on HIS1K (anti-His) sensors, so His-tagged; tag not described
T9 sequence (looked up): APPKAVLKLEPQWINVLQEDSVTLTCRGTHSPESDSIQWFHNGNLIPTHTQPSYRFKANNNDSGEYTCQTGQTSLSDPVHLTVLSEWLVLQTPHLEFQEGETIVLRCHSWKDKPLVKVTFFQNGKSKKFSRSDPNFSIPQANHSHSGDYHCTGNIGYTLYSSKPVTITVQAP
Described as above.

Experiment [13] addresses T10, Human FcγRI (CD64) (ACRO, Cat No. FCA-H52H1) (human, UniProt P12314 16-288, limits assumed).
T10 construct: His-tagged (CD64-His), immobilised on HIS1K sensors; tag not described; also called CD64-His
The description is as above.

Experiment [14] concerns the target T11, Human FcRn (ACRO, Cat No. FCM-H8286) (human, UniProt P55899 24-297; P61769 21-119, biotinylated (Bio-FcRn, site not stated)).
T11 construct: immobilised on SA (streptavidin) sensors; also called Bio-FcRn
Kind of experiment: BLI (Octet R8), biotinylated FcRn on SA sensor, antibody in solution.

In experiment [15] the target is T4, Recombinant human c-Met-HIS …. Kind of experiment: BLI (Octet R8), affinity for c-Met-his compared with affinity for EGFR-HIS.
In experiment [16] the target is T3, Recombinant human EGFR-HIS …. Kind of experiment: BLI (Octet R8), antibody captured on AHC2 sensor, EGFR-His in solution.
The target of experiment [17] is T4, Recombinant human c-Met-HIS …. Kind of experiment: BLI (Octet R8), antibody captured on AHC2 sensor, c-Met-HIS in solution.
In experiment [18] the target is T12, HGFR-hfc (Acrobiosystems, Cat No. MET-H5256) (human, UniProt P08581 25-932).
T12 construct: Bought reagent; also called human HGFR protein; receptor c-Met; not shown: human Fc (hfc)
Kind of experiment: blocking ELISA, HGFR-hfc coated, HGF-HIS as competitor ligand, anti-His detection.

Where only a bound is given, the exact number is not on record here.

B1: Anti-c-Met/EGFR bispecific antibody BT461-DB (bispecific antibody, human IgG1, kappa)
light 1: DIQMTQSPSSLSASVGDRVTITCRSSQNIVHSNGNTYLDWYQQTPGKAPKLLIYKVSNRFSGVPSRFSGSGSGTDFTFTISSLQPEDIATYYCFQYSHVPWTFGQGTKLQITRTVAAPSVFIFPPSDEQLKSGTASVVCLLNNFYPREAKVQWKVDNALQSGNSQESVTEQDSKDSTYSLSSTLTLSKADYEKHKVYACEVTHQGLSSPVTKSFNRGEC
heavy 1: not shown
light 2: DIQMTQSPSSLSASVGDRVTITCSVSSSVSSIYLHWYQQKPGKAPKLLIYSTSNLASGVPSRFSGSGSGTDFTLTISSLQPEDFATYYCQVYSGYPLTFGGGTKVEIKRTVAAPSVFIFPPSDEQLKSGTASVVCLLNNFYPREAKVQWKVDNALQSGNSQESVTEQDSKDSTYSLSSTLTLSKADYEKHKVYACEVTHQGLSSPVTKSFNRGEC
heavy 2: not shown
notes: DuoBody format, assembled in vitro by Fab arm exchange from BT461-DB-EGFR and BT461-DB-c-Met; parents expressed in FUT8 knock-out CHO-K1 cells (no fucose); also called BT461 with Duobody structure
Take B1: the “EC50 of Antibody-Mediated ADCC Killing Curves (ADCC Reporter Bioassay, CHOK1-c-Met target cells)” value in [1] was determined as 0.162 µg/mL. For the same molecule, in [2], the “EC50 of Antibody-Mediated ADCC Killing Curves (ADCC Reporter Bioassay, CHOK1-EGFR target cells)” value amounted to 0.185 µg/mL. In addition, the EC50 was determined as 1.3 µg/mL in experiment [3], 0.00822 µg/mL in experiment [4], 1.73 µg/mL in experiment [5] and 0.266 µg/mL in experiment [6]. The Kd in experiment [7] was determined as 11.2 nM; in experiment [8], 1520 nM; in [9] it was 26.5 nM; in [10], 330 nM; in experiment [11] it was 14400 nM; in experiment [12], 1650 nM. Further, the Kd in experiment [13] came out at 8.97 nM; in experiment [14] it was 228 nM; in experiment [16], 21.9 nM; in experiment [17] it was 0.766 nM. The “fold difference between the affinities of the two arms (c-Met-his against EGFR-HIS)” value in [15] is greater than 20 fold. Also, the koff was determined as 0.0033 s⁻¹ in [16] and 0.000213 s⁻¹ in [17]. The kon in [16] worked out at 151000 M⁻¹ s⁻¹; in experiment [17] it was 278000 M⁻¹ s⁻¹. The IC50 in experiment [18] amounted to 0.456 µg/mL.
